# Test results published in patent US20220288204A1, “DOSAGE AND ADMINISTRATION OF ANTI-ERBB3 (HER3) MONOCLONAL ANTIBODIES TO TREAT TUMORS ASSOCIATED WITH NEUREGULIN 1 (NRG1) GENE FUSIONS” (ELEVATION ONCOLOGY, INC., priority 2021, published 2022).
# Columns and labels:
# HBECp53 cells = test: AlamarBlue viability dose-response (growth inhibition); format: cell-based, human; details: 96 hours
# Method: (§1) Expression of […] (FIG. 1A) or SLC3A2-NRG1 (FIG. 2B) fusions in MDA-MB-175-VII and LUAD-0061AS3 cells, respectively, was determined by RT-PCR. The HBECp53 (NRG1 fusion negative) and HBECp53-SLC3A2-NRG1 cells were used as negative and positive controls, respectively. […] Viability results represent the mean±SEM of 2-5 independent experiments in which each condition was assayed in triplicate determinations. Viability data were analyzed by nonlinear regression and the IC50 values for growth inhibition and the 95% confidence interval were determined with GraphPad Prism 8. […] Results represent the mean±SD for one experiment in which each condition was assayed in duplicate.
# (§2) For the time-course experiments, cells were plated at a density of 5,000 (HCC-95) or 10,000 (all others) cells per well in 12-well tissue culture plates, and then treated 24 hours later (time 0) with the respective agents. […] Cells were trypsinized and counted at the relevant time-point shown on the graphs. For dose-response studies, cells were plated at a density of 7,500-10,000 cells in white clear-bottom 96-well plates in a volume of […] complete growth media and […] chemicals added at 10× concentration (to achieve 1× concentration) in a final volume of […]. After 96-hour incubation, […] AlamarBlue cell viability reagent was added to achieve a final concentration of 10%. AlamarBlue is a cell permeable […] dye that is reduced when it enters the mitochondria and emits fluorescence at a different wavelength (Gloeckner H, J. Immunol. Methods 2001; 252:131-8). Fluorescence was measured (excitation, 530 nm and emission, 585 nm) using a […] Spectramax M2 Fluorescence Plate Reader, as described previously (Somwar R, J. Biomol. Screen 2009; 14:1176-84). In each experiment, background fluorescence was determined in cells treated with […] of the 20S proteasome inhibitor, carfilzomib, which is toxic to most cells at high concentrations, and was subtracted from all values. There were 3-4 replicates of each condition. Relative IC50 values and 95% confidence interval values were determined by nonlinear regression analysis using GraphPad Prism 8 software using either a variable slope model or in cases where inhibition was only partial, a three-parameter fit was used. […] Each condition was assayed in triplicate in 2-5 independent experiments.
# (§3) Cells expressing NRG1 fusions rely on activation of HER3 for growth and survival. […] The estimated IC50 values obtained for growth inhibition are determined.
# LUAD-0061AS3 cells = test: as above; format: cell-based, human; details: 96 hours
# Method: as §1, §2, §3
# MCF-7 cells = test: as above; format: cell-based, human; details: 96 hours
# Method: as §1, §2, §3
# MDA-MB-175-VII cells = test: as above; format: cell-based, human; details: 96 hours
# Method: as §1, §2, §3
# [1] = system: EGFR, HER2, HER3, HER4, PI3K, mTOR and MAPK pathways in HBECp53-CD74-NRG1 cells; test: Western blotting of protein phosphorylation; format: cell-based, human; details: serum-starved, 1 hour
# Method: (§4) Whole-cell extracts were prepared after all treatments and subjected to SDS-PAGE, followed by immunoblotting for the phosphorylated (p) or total (t) proteins shown in each panel. All Western blotting studies were conducted at least two times and representative immunoblots of phosphorylated (p) and total (t) proteins are shown.
# (§5) These events likely culminate in inhibition of growth and impaired survival.
# [2] = system: EGFR, HER2, HER3, HER4, PI3K, mTOR and MAPK pathways in LUAD-0061AS3 cells; test: Western blotting of protein phosphorylation; format: cell-based, human; details: serum-starved, 1 hour
# Method: as §4, §5
# [3] = system: EGFR, HER2, HER3, HER4, downstream signaling, apoptosis and cell-cycle proteins in MDA-MB-175-VII cells; test: Western blotting of protein phosphorylation and expression; format: cell-based, human
# Method: as §4, §5
# As observed with phosphor-ylation of some proteins, cyclin D1 level began to be restored by 12 hours (FIG. 4D).
# [4] = system: HER2, HER3, AKT, ERK1/2 phosphorylation and BIM in LUAD-0061AS3 PDX tumors; test: Western blotting of PDX tumor lysates after single administration; format: in vivo, mice
# Method: Characterization of the […] PDX model. H&E staining, TTF-1, and phospho-HER3 IHC (FIG. 5A, left to right). […] (FIG. 5B). Tumor volumes were measured twice weekly and plotted overtime. Results represent the mean±SEM. […] Western blotting was performed twice for each protein and representative immunoblots of phosphorylated (p) and total (t) proteins are shown (FIG. 5C).
# Crushed PDX tumor samples were mixed with Matrigel (50%) and injected into the subcutaneous flank of 6-week-old female NSG (LUAD-0061AS3) or Balb/c nude (OV-10-0050) mice. When tumors reached approximately 100-150 mm3, mice were randomly assigned to groups of 5-8 and treatment was commenced. There were 2 mice per group with bilateral flank tumors for the protein phosphorylation/expression study in the LUAD-0061AS3 PDX model. Drugs were administered once, and then tumors were collected at 2, 24, and 168 hours posttreatment. Afatinib was administered by oral gavage once daily as a suspension (in 0.5% methylcellulose-0.4% Tween-80) on a 5-days-on and 2-days-off schedule. […] Mice were observed daily throughout the treatment period for signs of morbidity and mortality. Tumor length and width and animal weights were measured twice weekly. Tumor volume was calculated using the empirical formula V=length×width 2×0.52. The percentage change in tumor volume of each tumor was calculated using the formula [(V2−V1)/V1)]×100, where V1 is the starting tumor volume and V2 is the final tumor volume.
# Protein phosphorylation was then detected by Western blotting of PDX tumor lysates.
molecule,measurement,setting,value
seribantumab: anti-ERBB3 (HER3) fully human monoclonal antibody; heavy and light chains SEQ ID NOs: 12 and 13 (antibody) heavy: EVQLLESGGGLVQPGGSLRLSCAASGFTFSHYVMAWVRQAPGKGLEWVSSISSSGGWTLYADSVKGRFTISRDNSKNTLYLQMNSLRAEDTAVYYCTRGLKMATIFDYWGQGTLVTVSSASTKGPSVFPLAPCSRSTSESTAALGCLVKDYFPEPVTVSWNSGALTSGVHTFPAVLQSSGLYSLSSVVTVPSSNFGTQTYTCNVDHKPSNTKVDKTVERKCCVECPPCPAPPVAGPSVFLFPPKPKDTLMISRTPEVTCVVVDVSHEDPEVQFNWYVDGVEVHNAKTKPREEQFNSTFRVVSVLTVVHQDWLNGKEYKCKVSNKGLPAPIEKTISKTKGQPREPQVYTLPPSREEMTKNQVSLTCLVKGFYPSDIAVEWESNGQPENNYKTTPPMLDSDGSFFLYSKLTVDKSRWQQGNVFSCSVMHEALHNHYTQKSLSLSPGK light: QSALTQPASVSGSPGQSITISCTGTSSDVGSYNVVSWYQQHPGKAPKLIIYEVSQRPSGVSNRFSGSKSGNTASLTISGLQTEDEADYYCCSYAGSSIFVIFGGGTKVTVLGQPKAAPSVTLFPPSSEELQANKATLVCLVSDFYPGAVTVAWKADGSPVKVGVETTKPSKQSNNKYAASSYLSLTPEQWKSHRSYSCRVTHEGSTVEKTVAPAECS,IC50,HBECp53 cells; AlamarBlue,203 µM
same,effect on growth,HBECp53 cells; no NRG1 fusion,minimal effect
same,IC50,LUAD-0061AS3 cells; AlamarBlue,1.4 µM
same,effect on growth,LUAD-0061AS3 cells; dose-response,reduced growth in a dose-dependent manner
same,IC50,MCF-7 cells; AlamarBlue,45.2 µM
same,effect on growth,MCF-7 cells; no NRG1 fusion,minimal effect
same,IC50,MDA-MB-175-VII cells; AlamarBlue,0.02 µM
same,effect on growth,MDA-MB-175-VII cells; dose-response,reduced growth in a dose-dependent manner
same,HER3 phosphorylation,[1],completely inhibited
same,"phosphorylation of AKT, p70S6K, and STAT3",[1],almost completely inhibited
same,"phosphorylation of EGFR, HER2, HER3, HER4, AKT, and STAT3",[2],almost complete inhibition
same,phosphorylation of ERK1/2,[2],less sensitive
same,phosphorylation of AKT over time,"[3]; 2 mmol/L seribantumab, up to 24 hours",remained completely inhibited for the entire 24-hour treatment period
same,expression of proapoptotic proteins cleaved-PARP and PUMA,"[3]; seribantumab, 6-24 hours",elevated
same,level of cyclin D1,"[3]; seribantumab, up to 24 hours",undetectable by 6 hours
same,"time to full inhibition of phosphorylation of HER3, HER4, and downstream signaling","[3]; seribantumab, up to 24 hours",30 min
same,"phosphorylation of HER3, HER2, EGFR, and HER4","[3]; serum-starved, 3 hours",fully inhibited
same,BIM expression in tumors,"[4]; 0.75 and 1 mg seribantumab, by 2 hours",higher levels of BIM than vehicle-treated tumors
same,"phosphorylation of HER2, HER3, AKT, and ERK1/2 in tumors","[4]; all doses of seribantumab (0.6, 0.75, 1 mg), single administration, 2-hour timepoint",reduced phosphorylation
same,BIM expression in tumors,"[4]; all doses of seribantumab, 168-hour timepoint",Elevated BIM was present
same,BIM expression in tumors,"[4]; all doses of seribantumab, after 24 hours",Induction of BIM expression was clearly seen
same,HER2 phosphorylation in tumors,"[4]; seribantumab higher doses, 168 hours",remained inhibited even after 168 hours
